Reference: US20110059159A1

What was measured:
[1] = biological target: Chemokine Receptor 5 (CCR5) with an engineered 1D4 epitope at the C-terminal tail (UniProt P51681); assay: sandwich ELISA, 2D7 capture, HRP-1D4 detection; CCR5 solubilised in 1% (w/v) DDM
[2] = biological target: Chemokine Receptor 5 (CCR5) with an engineered 1D4 epitope at the C-terminal tail (UniProt P51681); assay: sandwich ELISA, 2D7 capture, HRP-1D4 detection; CCR5 reconstituted into NABBs with POPC and zap1 (sample 7)
[3] = biological target: Chemokine Receptor 5 (CCR5) with an engineered 1D4 epitope at the C-terminal tail (UniProt P51681); assay: cell-based or functional assay
[4] = biological target: holotransducin (Gt) (bovine) (UniProt P04695); assay: cell-based or functional assay
holotransducin (Gt) (bovine), sequence (P04695 2-350, chain 1 of 3): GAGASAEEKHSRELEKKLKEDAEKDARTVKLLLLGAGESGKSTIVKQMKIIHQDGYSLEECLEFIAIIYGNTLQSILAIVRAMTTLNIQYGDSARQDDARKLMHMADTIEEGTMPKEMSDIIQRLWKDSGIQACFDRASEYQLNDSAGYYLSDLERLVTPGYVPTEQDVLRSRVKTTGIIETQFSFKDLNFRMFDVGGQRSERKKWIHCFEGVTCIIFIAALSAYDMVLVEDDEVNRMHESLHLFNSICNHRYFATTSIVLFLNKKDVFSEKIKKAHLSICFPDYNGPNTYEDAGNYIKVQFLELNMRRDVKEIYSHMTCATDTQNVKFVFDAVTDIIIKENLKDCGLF
holotransducin (Gt) (bovine), sequence (P62871 2-340, chain 2 of 3, further chain): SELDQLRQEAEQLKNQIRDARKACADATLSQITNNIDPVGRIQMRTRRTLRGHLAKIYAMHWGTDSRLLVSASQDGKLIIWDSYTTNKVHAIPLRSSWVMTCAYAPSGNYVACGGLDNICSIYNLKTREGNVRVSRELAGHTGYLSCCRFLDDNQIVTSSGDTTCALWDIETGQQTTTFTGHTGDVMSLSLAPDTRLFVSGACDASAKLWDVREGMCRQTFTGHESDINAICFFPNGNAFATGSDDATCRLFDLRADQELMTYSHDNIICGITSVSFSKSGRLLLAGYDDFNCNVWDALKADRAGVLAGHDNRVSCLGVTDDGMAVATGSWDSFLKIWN
holotransducin (Gt) (bovine), sequence (P02698 2-71, chain 3 of 3, further chain): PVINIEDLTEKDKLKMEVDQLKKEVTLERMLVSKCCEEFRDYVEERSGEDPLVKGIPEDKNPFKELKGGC

2D7 antibody
ELISA signal relative to sample 1 (% of sample 1) [1]: 65 | ELISA signal relative to sample 1 (% of sample 1) [2]: 92

RANTES (from UniProt P13501 24-91) (ligand)
enhancement of B-GTPγS binding to the G protein [3]: < 30%

rhodopsin incorporated in NABBs (from UniProt P02699 1-348) (receptor)
apparent pseudo first-order rate constant (kobs) of transducin activation, 1 rho-NABB [4]: 0.006 s⁻¹ | apparent pseudo first-order rate constant (kobs) of transducin activation, 2rho-NABB [4]: 0.003 s⁻¹
